Source: US20250179187A1, “ANTI PD-L2 ANTIBODY” (REJUVERON SENESCENCE THERAPEUTICS AG, priority 2022, published 2025)
Where two headings read alike, the source gives them in different places.

What was measured:
[1] = target: human PD-L2 on CHO-K1 cells of the Promega PD-1/PD-L2 blockade bioassay (human) (UniProt Q9BQ51)
[2] = target: human PD-L2 on CHO-K1 cells over-expressing hPDL2-GFP (human) (UniProt Q9BQ51); test: binding to cellular PDL2 (FIG. 1A by the text; flow cytometry on CHO-K1 cells expressing hPD-L2)
human PD-L2 on CHO-K1 cells over-expressing hPDL2-GFP (human), sequence (Q9BQ51 20-273): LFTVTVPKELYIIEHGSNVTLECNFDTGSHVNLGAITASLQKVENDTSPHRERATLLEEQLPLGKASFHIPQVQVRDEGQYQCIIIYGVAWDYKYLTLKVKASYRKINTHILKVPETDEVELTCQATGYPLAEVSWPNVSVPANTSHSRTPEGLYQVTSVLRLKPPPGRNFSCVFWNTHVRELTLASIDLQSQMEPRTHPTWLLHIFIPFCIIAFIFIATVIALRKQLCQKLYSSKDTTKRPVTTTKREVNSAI

[3] = target: human PD-L2 on CHO-K1 cells over-expressing hPDL2-GFP (human) (UniProt Q9BQ51); test: flow cytometry blocking assay: antibody titrated against recombinant hPD-1 (constant 15 micrograms/mL) binding to CHO-K1 cells expressing hPD-L2; signal falls with the antibody; column head on the sheet is EC50
[4] = target: human PD-L2 on CHO-K1 cells over-expressing hPDL2-GFP (human) (UniProt Q9BQ51); test: flow cytometry on CHO-K1 cells expressing hPD-L2, median fluorescence
[5] = target: human PD-L2 on CHO-K1 cells of the Promega PD-1/PD-L2 blockade bioassay (human) (UniProt Q9BQ51); remark: listed apart in the source
[6] = target: mouse PD-L2 on CHO-K1 cells over-expressing mPD-L2 GFP (mouse) (UniProt Q9WUL5); test: flow cytometry on CHO-K1 cells overexpressing mPD-L2, mean fluorescence
mouse PD-L2 on CHO-K1 cells over-expressing mPD-L2 GFP (mouse), sequence (Q9WUL5 20-247): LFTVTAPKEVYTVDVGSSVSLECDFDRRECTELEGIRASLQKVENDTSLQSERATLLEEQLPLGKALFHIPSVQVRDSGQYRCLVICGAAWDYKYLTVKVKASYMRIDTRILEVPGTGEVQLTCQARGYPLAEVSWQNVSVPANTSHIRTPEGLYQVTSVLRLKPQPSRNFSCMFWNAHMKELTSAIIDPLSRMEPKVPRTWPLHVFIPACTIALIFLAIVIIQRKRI

human PD-L2 on CHO-K1 cells of the Promega PD-1/PD-L2 blockade bioassay (human), sequence (Q9BQ51 20-273): as the sequence (Q9BQ51 20-273) above

EC50 (PD-1/PD-L2 blockade reporter assay, luminescence) [1]	EC50 [2]	EC50 [3]	EC50 [4]	EC50 (PD-1/PD-L2 blockade reporter assay, luminescence) [5]	EC50 [6]	Substance
1.78 nM	0.7 nM	1.14 nM	1.18 nM			24F.10C12 (commercially available anti-PD-L2 monoclonal antibody)
1.71 nM	0.618 nM	2.99 nM	1.65 nM	1.32 nM		MIH-18 (commercially available anti-PD-L2 monoclonal antibody)
					0.64 nM	TY25 (antibody)
